In US20230203142:

Target: human NDPK-A (nucleoside diphosphate kinase A), full-length recombinant
Sequence (chain, as listed by the source): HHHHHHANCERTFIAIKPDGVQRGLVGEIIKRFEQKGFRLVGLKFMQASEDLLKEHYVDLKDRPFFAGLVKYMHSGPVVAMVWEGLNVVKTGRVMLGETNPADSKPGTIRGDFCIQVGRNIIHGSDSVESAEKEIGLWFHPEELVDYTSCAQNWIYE

B1: human ADK (adenosine kinase), recombinant (protein)
chain: AAAEEEPKPKKLKVEAPQALRENILFGMGNPLLDISAVVDKDFLDKYSLKPNDQILAEDKHKELFDELVKKFKVEYHAGGSTQNSIKVAQWMIQQPHKAATFFGCIGIDKFGEILKRKAAEAHVDAHYYEQNEQPTGTCAACITGDNRSLIANLAAANCYKKEKHLDLEKNWMLVEKARVCYIAGFFLTVSPESVLKVAHHASENNRIFTLNLSAPFISQFYKESLMKVMPYVDILFGNETEAATFAREQGFETKDIKEIAKKTQALPKMNSKRQRIVIFTQGRDDTIMATESEVTAFAVLDQDQKEIIDTNGAGDAFVGGFLSQLVSDKPLTECIRAGHYAASIIIRRTGCTFPEKPDFH
  activity of recombinant NDPK to generate ADP (ADP-Glo): addition of recombinant ADK significantly reduced the activity of NDPK to generate ADP
